Target: ZNF306 (UniProt Q9BRR0 Q9BRR0:1-538)
Assay: cell_activity; luciferase induction, duplicate tandem copies upstream of minimal tk promoter
Details: tags: expression plasmid or cDNA in colon cancer cells

Chain of ZNF306 (Q9BRR0 whole entry, one chain of several): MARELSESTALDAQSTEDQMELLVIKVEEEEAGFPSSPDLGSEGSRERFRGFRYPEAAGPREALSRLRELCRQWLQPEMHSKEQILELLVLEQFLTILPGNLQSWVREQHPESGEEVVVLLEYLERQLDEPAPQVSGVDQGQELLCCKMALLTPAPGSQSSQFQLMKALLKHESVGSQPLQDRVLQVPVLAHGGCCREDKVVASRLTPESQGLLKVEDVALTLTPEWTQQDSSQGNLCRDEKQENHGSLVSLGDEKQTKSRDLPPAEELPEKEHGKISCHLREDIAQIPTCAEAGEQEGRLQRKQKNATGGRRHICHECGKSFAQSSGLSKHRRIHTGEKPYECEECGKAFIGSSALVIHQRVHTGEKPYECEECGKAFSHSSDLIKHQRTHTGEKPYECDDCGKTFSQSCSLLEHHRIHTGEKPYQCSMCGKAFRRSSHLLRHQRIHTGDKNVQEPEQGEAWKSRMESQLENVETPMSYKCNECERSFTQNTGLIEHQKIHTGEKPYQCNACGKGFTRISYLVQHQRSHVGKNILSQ

B1: integrin beta4 intron 1 wt probe (dsDNA)
DNA 1: TGAGGGG
DNA 2: CCCCTCA
- activity: 6 fold

— patent US20070298445, “Cancer Therapeutic” (published 2007)
